In patent US20070123452A1, “Method of selecting novel immunosuppressant” (Astellas Pharma Inc., priority 2002, published 2007):

Key:
[1] = target: HDAC4-VP16 fusion protein (pACT-HDAC4) (human, UniProt P56524 1-1084); test: mammalian two-hybrid (CheckMate), pG5-Luc luciferase in Jurkat cells
[2] = target: T1, HDAC4 (H863L)-VP16 fusion protein (pACT-HDAC4 (H863L)) (human, UniProt P56524 1-1084); test: as above
T1 construct: also called HDAC4 dominant negative variant (H863L)

[3] = system: IL-2 transcription (human IL-2 promoter); test: IL-2 reporter gene assay in Jurkat cells; format: cell-based
Protocol: To 1 μg of the plasmid pGL3 IL2 Pro43, which has a human IL-2 promoter sequence (the −674 to +54 region in the vicinity of the transcription initiation site) upstream of the firefly luciferase gene, and 6 μg of pRL-TK (Promega), the plasmids for the expression of wild-type HDAC4 or each of HDAC4 dominant negative variants (H802K, H803L, H863L) prepared in Example 3 was mixed in various ratios (1, 3 and 10 μg), and 1×10^7 Jurkat cells (ATCC, TIB-152) were transformed by the electroporation method (BIO-RAD, Gene Pulser II, voltage 300 V, charge 975 μF, 400 μL).
After transformation, 2.5 mL of RPMI 1640 containing 10% FBS (MOREGATE) (10% FBS RPMI 1640) was added, and this mixture was dispensed to a 96-well white plate in a ratio of 50 μL/well. After cultivation under conditions of 37° C., 5% CO2 and saturated humidity for 10 hours, a liquid mixture of Phorbol 12-Myristate 13-Acetate (PMA, SIGMA), Ionomycin (SIGMA) and Anti-CD28 antibody (Pharmingen) in 10% FBS RPMI 1640 was added at 50 μL/well (the final concentrations were 50 ng/mL, 1 μg/mL and 75 ng/mL, respectively) to stimulate the Jurkat cells. After cultivation under conditions of 37° C., 5% CO2 and saturated humidity for 12 hours, luciferase activity in the cells was measured according to the manual of the Bright-Glo Luciferase Assay System (Promega) using a multi-label counter (1420 MULTILABEL COUNTER ARVO SX, WALLAC).
1×10^7 Jurkat cells (ATCC, TIB-152) were transformed with 10 μg of a plasmid for the expression of various HDACs or HDAC variants by the electroporation method (BIO-RAD, Gene Pulser II, voltage 300 V, charge 975 μF, 400 μL). […] After cultivation under conditions of 37° C., 5% CO2 and saturated humidity for 12 hours, luciferase activity in cells were measured according to the manual of the Bright-Glo Luciferase Assay System (Promega), and IL-2 transcriptional activity was measured using a multi-label counter (1420 MULTILABEL COUNTER ARVO SX, WALLAC).
(§1) A mixture of four kinds of HDAC4-targeted siRNA, i.e., siGENE HDAC4 SMARTpool (manufactured by Dharmacon Inc., marketed by B-Bridge international Inc., code number M-003497-00-05), or Non-specific Control Duplex IX (47% GC content) (manufactured by Dharmacon Inc., marketed by B-Bride international Inc., code number D-001206-09-20), and pGL3 IL2 Pro43 were transfected to Jurkat cells by the electroporation method using the same conditions as those mentioned above, and IL-2 transcriptional activity was measured. Likewise, siGENE HDAC4 SMARTpool or Non-specific Control Duplex IX, and pGL3-HSI-IE Pro were transfected to HEL cells, and GATA-1 transcriptional activity was measured. […]

[4] = system: GATA-1 transcription (human GATA-1 promoter); test: GATA-1 reporter gene assay in HEL cells; format: cell-based; conditions: 10 μg expression plasmid
Protocol: Using 15 μg of pGL3-HSI-IE Pro and 10 μg of a plasmid for the expression of various HDACs or HDAC variants, 8.75×10^6 HEL cells (accession number JCRB0062, JCRB) were transformed by the electroporation method (BIO-RAD, Gene Pulser II, voltage 1750 V, charge 10 μF, 365 μL). After transformation, 2 mL of 10% FBS RPMI 1640 was added, and this mixture was dispensed to a 96-well white plate in a ratio of 50 μL/well. After cultivation under conditions of 37° C., 5% CO2 and saturated humidity for 3 hours, 10% FBS RPMI 1640 medium was added at 50 μL/well. After cultivation under conditions of 37° C., 5% CO2 and saturated humidity for 8 hours, luciferase activity in cells were measured according to the manual of the Bright-Glo Luciferase Assay System, and GATA-1 transcriptional activity was measured using a multi-label counter.
as §1, with “measured.” for “measured. Likewise, siGENE HDAC4 SMARTpool or Non-specific Control Duplex IX, and pGL3-HSI-IE Pro were transfected to HEL cells, and GATA-1 transcriptional activity was measured.”

histone = test: HDAC activity with [3H]-labeled acetylated histone as a substrate; format: biochemical, human; conditions: expressed in 293T cells, crudely purified; compared to wild-type HDAC4
Protocol: 7 μg of a plasmid for the expression of wild-type HDAC4 and HDAC4 dominant negative variants (H802K, H803L, H863L) was transfected to 293T cells by the calcium phosphate method; 48 hours later, whole cell lysate (cells were disrupted in 25 mM Tris, pH 7.4, 150 mM NaCl, 1 mM CaCl2, 1% Triton X-100, and cell debris was removed by centrifugation) was crudely purified using an anti-Flag antibody column (SIGMA, anti-Flag M2-agarose) (washed with TBS, then eluted with 0.1M Glysine-HCl, pH 3.5), and used for the measurement of HDAC activity. The reaction substrate used was a [^3H]-labeled acetylated histone prepared by cultivating Jurkat cells (2×10^8 cells) in 40 mL of an RPMI (SIGMA) medium containing 300 MBq [^3H] sodium acetate (NENTM Life Science Products, Inc.) for 2 hours, disrupting the cells in Lysis buffer, pH 6.5 (10 mM Tris-HCl, 50 mM Sodium Hydrogen sulfate, 1% Triton X-100, 10 mM MgCl2-6H2O, 8.6% Sucrose), washing the cells with Wash buffer (10 mM Tris-HCl, 13 mM EDTA), and then adding 0.4N H2SO4.

Molecule	binding result [1]	binding result [2]	IL-2 transcriptional activity (luciferase) ([3]; Jurkat cells stimulated with PMA, Ionomycin, Anti-CD28 antibody, expression plasmid 1, 3 and 10 μg)	IL-2 transcriptional activity (luciferase) ([3]; Jurkat cells, 10 μg expression plasmid, compared with HDAC1 and HDAC3 variants)	GATA-1 transcriptional activity (luciferase) [4]	HDAC activity with histone as a substrate (histone)
GAL4-N-CoR (RD3) fusion protein (pBIND-N-CoR(RD3)) (other, not shown: large carriers, The cloned fragment carried the variation L1014V (numbered on full-length N-CoR); also called pBND-N-CoR (RD3)) EVLQPAPHQVITNLPEGVRLPTTRPTRPPPPLIPSSKTTVASEKPSFIMGGSISQGTPGTYLTSHNQASYTQETPKPSVGSISLGLPRQQESAKSATLPYIKQEEFSPRSQNSQPEGLLVRAQHEGVVRGTAGAIQEGSITRGTPTSKISVESIPSLRGSITQGTPALPQTGIPTEALVKGSISRMPIEDSSPEKGREEAASKGHVIYEGKSGHILSYDNIKNAREGTRSPRTAHEISLKRSYESVEGNIKQGMSMRESPVSAPLEGLICRALPRGSPHSDLKERTVLSGSIMQGTPRATTESFEDGLKYPKQIKRESPPIRAFEGAITKGKPYDGITTIKEMGRSIHEIPRQDILTQESRKTPEVVQSTRPIIEGSISQGTPIKFDNNSGQSAIKHNVKSLITGPSKLSRGMPPLEIVPENIKVVERGKYEDVKAGETVRSRHTSVVSSGPSVLRSTLHEAPKAQLSPGIYDDTSARRTPVSYQN	binds	no binding	–	–	–	–
HDAC4 dominant negative variants (H802K, H803L): HDAC4 variant with H802K and H803L mutations, amino acid sequence SEQ ID NO:4, expressed from plasmid (protein, Dominant negative mutant (H802K, H803L) of human histone deacetylase-4 (HDAC4) gene) MSSQSHPDGLSGRDQPVELLNPARVNHMPSTVDVATALPLQVAPSAVPMDLRLDHQFSLPVAEPALREQQLQQELLALKQKQQIQRQILIAEFQRQHEQLSRQHEAQLHEHIKQQQEMLAMKHQQELLEHQRKLERHRQEQELEKQHREQKLQQLKNKEKGKESAVASTEVKMKLQEFVLNKKKALAHRNLNHCISSDPRYWYGKTQHSSLDQSSPPQSGVSTSYNHPVLGMYDAKDDFPLRKTASEPNLKLRSRLKQKVAERRSSPLLRRKDGPVVTALKKRPLDVTDSACSSAPGSGPSSPNNSSGSVSAENGIAPAVPSIPAETSLAHRLVAREGSAAPLPLYTSPSLPNITLGLPATGPSAGTAGQQDTERLTLPALQQRLSLFPGTHLTPYLSTSPLERDGGAAHSPLLQHMVLLEQPPAQAPLVTGLGALPLHAQSLVGADRVSPSIHKLRQHRPLGRTQSAPLPQNAQALQHLVIQQQHQQFLEKHKQQFQQQQLQMNKIIPKPSEPARQPESHPEETEEELREHQALLDEPYLDRLPGQKEAHAQAGVQVKQEPIESDEEEAEPPREVEPGQRQPSEQELLFRQQALLLEQQRIHQLRNYQASMEAAGIPVSFGGHRPLSRAQSSPASATFPVSVQEPPTKPRFTTGLVYDTLMLKHQCTCGSSSSHPEHAGRIQSIWSRLQETGLRGKCECIRGRKATLEELQTVHSEAHTLLYGTNPLNRQKLDSKKLLGSLASVFVRLPCGGVGVDSDTIWNEVHSAGAARLAVGCVVELVFKVATGELKNGFAVVRPPGKLAEESTPMGFCYFNSVAVAAKLLQQRLSVSKILIVDWDVHHGNGTQQAFYSDPSVLYMSLHRYDDGNFFPGSGAPDEVGTGPGVGFNVNMAFTGGLDPPMGDAEYLAAFRTVVMPIASEFAPDVVLVSSGFDAVEGHPTPLGGYNLSARCFGYLTKQLMGLAGGRIVLALEGGHDLTAICDASEACVSALLGNELDPLPEKVLQQRPNANAVRSMEKVMEIHSKYWRCLQRTTSTAGRSLIEAQTCENEEAETVTAMASLSVGVKPAEKRPDEEPMEEEPPL	–	–	IL-2 transcription suppression depending on the expression level	IL-2 transcription suppression was observed	GATA-1 transcription suppression was not observed	decreased HDAC activity compared to wild-type HDAC4
